The text below walks through data of article PMC4940744, “Iron(II) supramolecular helicates interfere with the HIV-1 Tat–TAR RNA interaction critical for viral replication”.

The data set has as its target T1, ADP-1 polypeptide (Tat RNA-binding region) (HIV-1, UniProt P04608 37-72).
T1 chain: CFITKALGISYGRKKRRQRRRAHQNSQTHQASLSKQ
Put plainly: EMSA; no helicate; EMSA: 50 mM Tris-HCl pH 8.0, 50 mM KCl, 100 mM DTT, 0.05% Triton X-100, 10 min on ice; 15% PAA gel, 0.5x TB, 5 C. The conditions noted are these: label: 5'-32P; hairpin with 3-nt UCU bulge. (In general: A gel shift assay detects complexes by their altered migration in electrophoresis.)

Consider GGCCAGAUCUGAGCCUGGGAGCUCUCUGGCC (structured_RNA) [TAR RNA], for which the binding result was “binds”.
